± gives the uncertainty stated by the source.
Assay: protein stability index of a GFP-peptide fusion (yeast GPS) (PSI 1-4); higher = more stable; sorted into four equal gates, so the index is relative within each strain
In short: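 The protein stability index combines read frequencies across sorting gates, each weighted by its gate number and then summed. To obtain those frequencies, a pooled yeast library of GFP fusions to tiled 17-residue yeast protein peptides, on a plasmid also expressing Cherry, was grown to mid-log phase in leucine-free medium. The cells were sorted into four equal gates by GFP/Cherry ratio before plasmid amplification by PCR and Illumina sequencing.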

Sequence | protein stability index (doa10∆) | protein stability index (pdr5∆) | protein stability index (san1∆) | protein stability index (ubr1∆)
PSPPNVIITDGTLLRED [YDL088C/ASM4] | 2.71 ± 0.036 | 2.81 ± 0.041 | 2.97 ± 0.045 | 2.91 ± 0.034
TVSPDFVAATTNAGYTI [FAS1] | 2.71 ± 0.065 | 2.71 ± 0.053 | 2.32 ± 0.12 | 2.56 ± 0.058
FLQSQRQQQQRSILQSL [SWI1] | 1.8 ± 0.062 | 1.92 ± 0.073 | 1.41 ± 0.087 | 1.55 ± 0.054
LDFQTNKRLCDEIATIQ [RPS17A] | 2.53 ± 0.091 | 2.98 ± 0.071 | 2.96 ± 0.057 | 3.18 ± 0.072
LVIGIFKRDLLREKEDK [YJL039C/NUP192] | 2.95 ± 0.098 | 2.28 ± 0.11 | 2.86 ± 0.069 | 2.34 ± 0.1
ELEKYNELERNRKIYQF [SMC3] | 2.34 ± 0.099 | 2.35 ± 0.13 | 2.38 ± 0.14 | 2.67 ± 0.078
LIYHLKDCAEVDSRTKI [IRR1] | 3.23 ± 0.086 | 3.18 ± 0.072 | 3.02 ± 0.058 | 3.23 ± 0.092
KGPLLIERIGHLLSINY [PCI8] | 2.35 ± 0.11 | 2.71 ± 0.15 | – | 3.11 ± 0.15
LISGAGANPRVLSTFTA [RPN10] | 2.16 ± 0.11 | 2.04 ± 0.1 | 2.02 ± 0.2 | 2.17 ± 0.072
FEGWGHEYIRHLALEIG [RPN1] | 2.18 ± 0.098 | 2.06 ± 0.071 | 2.41 ± 0.12 | 2.1 ± 0.083
LPTRYTLDVEAFKSVVS [RPL27A] | 1.33 ± 0.031 | 1.55 ± 0.039 | 1.62 ± 0.066 | 1.34 ± 0.031
RKRPVPKGATYGKPTNQ [RPL15A] | – | 3.29 ± 0.19 | 3.58 ± 0.19 | 3.45 ± 0.14
NYNRIAKICALLFFNFS [NUT1] | 1.89 ± 0.048 | 1.8 ± 0.047 | 1.37 ± 0.082 | 1.61 ± 0.031
KHLEDNTLLISGPFKVN [RPL6A] | 1.83 ± 0.085 | 2.01 ± 0.072 | 1.63 ± 0.13 | 2.14 ± 0.048
DAIAVTKGHGFEGVTHR [RPL3] | 3.06 ± 0.11 | 3.19 ± 0.11 | 3.37 ± 0.1 | 3.36 ± 0.077
VDQEMLYEIILAANYLN [SKP1] | 1.63 ± 0.051 | 1.72 ± 0.05 | 1.92 ± 0.093 | 1.84 ± 0.057
EQRKQKLSKILPRYQEL [SMC3] | 3.22 ± 0.12 | 3.1 ± 0.1 | 3.01 ± 0.096 | 3.12 ± 0.1
KIRRHPNIMLIFGSGFG [FAS1] | 1.9 ± 0.057 | 2.07 ± 0.061 | 1.68 ± 0.13 | 1.39 ± 0.054
PSLYRLLNILITYGIIK [SRB8] | 1.37 ± 0.12 | 1.07 ± 0.12 | – | 1.04 ± 0.044
EINPFLLGTMAGGAADC [PRE2] | 2.88 ± 0.18 | 3.22 ± 0.12 | 2.75 ± 0.15 | 2.61 ± 0.15
SLGIRPCLRKYEEFRDV [RRP43] | 3.27 ± 0.19 | – | 3.21 ± 0.18 | 2.96 ± 0.076
VCIRPSVMMQDSPASNE [RPO31] | 1.63 ± 0.085 | 2.08 ± 0.1 | 1.94 ± 0.11 | 2.06 ± 0.099
LLHERKLLNDLALENGE [NUT1] | 2.75 ± 0.06 | 2.66 ± 0.073 | 2.54 ± 0.083 | 2.84 ± 0.039
DESSGTSRIDEEKPGLI [SMC4] | 2.89 ± 0.058 | 3.12 ± 0.047 | 2.94 ± 0.05 | 3.08 ± 0.065
SSISWKNIAQCLSDYTK [YJL039C/NUP192] | 2.05 ± 0.08 | 2.11 ± 0.076 | 1.87 ± 0.076 | 2.11 ± 0.058
NRRKQSFVLNKNTIDFE [RPN4] | 2.86 ± 0.062 | 1.74 ± 0.045 | 2.1 ± 0.075 | 1.88 ± 0.044

Sequence | protein stability index (doa10∆) | protein stability index (pdr5∆) | protein stability index (san1∆) | protein stability index (ubr1∆)
FYAAVQKNYADPEKDSI [SIN4] | 2.11 ± 0.083 | 2.58 ± 0.074 | 2.01 ± 0.093 | 1.59 ± 0.046
MENIKKSIDSKTPEEVE [ISW2] | 2.92 ± 0.17 | 3.09 ± 0.23 | 3.13 ± 0.089 | 3.23 ± 0.11
INELVLENFKSYAGKQV [SMC4] | 2.69 ± 0.075 | 2.75 ± 0.057 | 2.39 ± 0.079 | 2.74 ± 0.049
LAEEKIRAAGGVVELIA [RPL28] | 2.919 ± 0.025 | 3.072 ± 0.024 | 2.935 ± 0.023 | 2.931 ± 0.02
ESRAQNVFGQDNEDSDN [SWI3] | 3.24 ± 0.1 | 3.16 ± 0.075 | 3.33 ± 0.048 | 3.2 ± 0.052
IIELENINAKMETRINI [YIL149C/MLP2] | 3.06 ± 0.091 | 2.63 ± 0.11 | 2.5 ± 0.069 | 2.62 ± 0.063
DVTPISMFGSDQKTGRA [RPN4] | 2.93 ± 0.069 | 3.11 ± 0.094 | 3.07 ± 0.066 | 2.95 ± 0.069
ALPSTHKVTQKKDIKIG [SIR4] | 2.36 ± 0.099 | 2.46 ± 0.071 | 2.56 ± 0.07 | 2.77 ± 0.067
NSADAAYAQVEIQPRAN [FAS2] | 2.82 ± 0.054 | 2.76 ± 0.065 | 2.21 ± 0.061 | 2.79 ± 0.048
LSTRELAGKVGSIRVHK [RPC53] | 1.61 ± 0.18 | 1.26 ± 0.11 | – | –
PVENIWADIFAKALDGQ [RPP1A] | 3.13 ± 0.1 | 3.25 ± 0.12 | 2.49 ± 0.23 | 2.62 ± 0.1
DTQFTKLLDDNPTEFDW [SRB8] | 2.99 ± 0.089 | 3.04 ± 0.071 | 2.91 ± 0.058 | 2.91 ± 0.043
IQSKAVEQGYEDAFNFW [YCG1] | 3.37 ± 0.13 | 3.33 ± 0.17 | 3.57 ± 0.12 | –
MKLKLMIVYYKDAISFI [YCS4] | 1.82 ± 0.053 | 1.49 ± 0.049 | 1.8 ± 0.091 | 1.73 ± 0.042
EEESLHVFQYANRPRLV [RPC37] | 1.36 ± 0.058 | 1.66 ± 0.081 | 1.79 ± 0.13 | 2.21 ± 0.047
QGTGKKTASLGNSKDDL [ISW2] | 3.02 ± 0.12 | 2.9 ± 0.18 | 3.41 ± 0.057 | 3.42 ± 0.14
CLLSIPKSTKGKILTIK [YML103C/NUP188] | 1.67 ± 0.053 | 1.87 ± 0.062 | 1.66 ± 0.11 | 1.97 ± 0.054
DNNTASNMLGSNEDVMM [RPB3] | 2.04 ± 0.25 | 2.43 ± 0.17 | 2.31 ± 0.25 | –
CLKRGWGHPTRMLLNLC [BRR2] | – | 3.14 ± 0.14 | 3.23 ± 0.079 | –
ECPVGEFLINEGTPINN [RPN14] | 2.99 ± 0.1 | 2.39 ± 0.069 | 2.89 ± 0.11 | 2.31 ± 0.085
FETFLVDVNNKFIALCE [SIN4] | 2.94 ± 0.062 | 3.05 ± 0.049 | 3.09 ± 0.045 | 3.1 ± 0.059
FDENIARDIISHNFQNA [PCI8] | 2.74 ± 0.053 | 2.77 ± 0.046 | 2.67 ± 0.043 | 2.77 ± 0.039
PQQSGKKLLINKDASLA [DPB4] | 2.2 ± 0.062 | 1.99 ± 0.064 | 1.81 ± 0.1 | 2.22 ± 0.055
IKNLGLPSDRCSKAMGD [RPP1] | 3.36 ± 0.19 | 3.32 ± 0.13 | 3.25 ± 0.23 | –
AGNIKCRNDAVNWLAYT [BRR2] | 3.13 ± 0.05 | 3.49 ± 0.039 | 3.16 ± 0.034 | 3.24 ± 0.035
ENNTDSARKELEQKIHE [SMC1] | 2.33 ± 0.1 | 2 ± 0.094 | 2.79 ± 0.086 | 3.01 ± 0.1
